Laboratory results taken from the nanobody polyreactivity screen of Harvey et al. (2022).

Assay: yeast display, Sf9 membrane polyspecificity reagent, FACS + sequencing; frameworks hold sequencing errors
Procedure, shortened: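 A nanobody's polyreactivity label depends on the gate it was sorted from. Yeast display cells were stained with 10% biotinylated, detergent-solubilized Sf9 membrane reagent for 1 hour at 4 °C, enriched on streptavidin microbeads and sorted by FACS. The low and high (top ~1%) gates were set on anti-HA fluorescence for expression and streptavidin fluorescence for reagent binding.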

Sequence | polyreactivity (PSR sort gate)
QVQLVESGGGLVQAGGRLRLSCAASGRTFIPYAMGWYRQAPGNERELVAAIRNGGSTNYADSVKGRFTISRDIAKNTVYLQMNSLKPEDTAVYYCNADLPVYVDYINGCYGYWGQGTQVTVSS | low polyreactivity
QVQLVESGGGLVQAGGSLRLSCAASGSNFRSNAMGWYRQAPGKERELVAAISRRGGSTYYADSVKGRFRISRDIAKNTVYLQMNSLKPEDTAVYYCAAPTIVSGHDSWGQGTQVTVSS | high polyreactivity
QVQLVESGGGLVQAGGSLRLSCAASGLTFGTYAMGWYRQAPGKERELVAAISGTGGTTYYADSVKGRFTISRDNAKNTVYLKMNSLKPEDTAVYYCNKRWRRPYPYDYWGQGTQVTVSS | high polyreactivity
QDQLVESGGGLVQAGGRLRLSCAASGRTFYWNAMGWYRQAPGKERELVAAINGGGSTYYADSVKGRFTISRDNAMNTVYLQINSLKQEDSAVYYCNAESYEFHRAWGDYDYWGHGTQVTVSS | low polyreactivity
QVHLVESGGGLVQAGGSLRLSCAASGSTFQWYAMGWYIQAPGKERELVATISYTGGSRTYYADSVKGRFTNSRDNAKNTVYLQMNSLKPEDTAVYDCAAESNQLFYFRRFDFWGQGTQVTVSS | low polyreactivity
QVHLVESGGGLVQAGGSLRLSCAASGSIFTRYTMGWYRQAPGKERELVAAITRSGGSTYYADSVKGRFTISRDNAKNTVYLQMNSLKPEDTAVYYCAARVRLATGARDYWGQGTQVTVSS | high polyreactivity
QVQLVESGGGLVQAGGSLRLSCAASGRTLVWYTMGWYRQAPGKEREFVAVITTGSGSTYYADSVKGRFTISRDNAKNTVYLQMNSLKPEDTAVYYCNAGYGGYSYHYPPYEYWGQGTLVTVSS | low polyreactivity
QVQLVESGGGLVQAGGSLRLSCAASGSTFRFYAMGWYRQAPGKERELVAAISKSGGITYYADSVKGRFTISRAHAKNTVYLQMNSLKPEDTSVSYCATVGLLSNFYSRFNYWGQGTPVTVSS | high polyreactivity
QVQLVESGGGLVQAGGSLRLSCSASGSTFKYNAKGWYIQETGKEWELVAYITRGGHTNYAVSVKGRFTISRDNAKNTVYLQMNRLKPEDTAVYYCAAVRPSVGFRGAWYPQYDYWGQGTQVTVSS | low polyreactivity
QVQLEESGGGLVQAGGSLRLSCAASGFTFSGYDMGWYSPAPGKERELVAGISYGGVSTTYADSVKGRFTISRDNAKNTVYVQMNSLKPEDTAVYYCNAEWTSFDWGQGTQVTVSS | low polyreactivity
QVQLVESGGGLVQAGGSLRLICAASGSTFGEYAMGWYRQAHGKERELVAVITSDDNTYYADSVKGRFTISRDNAKNTVYLQMNSLKPEDTAVYYCAARGYVLARSQQWRREYYWGQGTQVTVSS | high polyreactivity
QVQLVESGGRLVQAGGSLRLSCAASGSTFRYYAMGWYRQAPGKERELVAAITSSGTSTYYADSVKGRFTISRDNAKNTVYLQMNSLKPEDTAVYYCAAPPVYKWVSSRYDYWGQGTQVTVSS | low polyreactivity
QVQLVESGGGLVQAGGSLRLSCAASGSTFLGNAMGWYRQAPGKERELVAGITSGGTTNYADSVKGRFTISRDNAKNTVYLQMNSLKPEDTAVYYCNADVWIGQRFDPGYDFDYWGQGTQVTVSS | low polyreactivity
QVQLVESGGGLVQAGGSLRLSCAASGRIFTYYAMGWYRQAPGKERELVAAITGSGTSTYYADSVKGRFTISRDNAKNTVYLQMNSLKPEDTAVYYCAARNSYSRYYYWGQGTQVTVSS | high polyreactivity
QVQSVESGGGLVQAGGSLRLSCAASGRTFSIYGMGWYRQAPGKERELVAAISWRSGSTYYADSVKGRFTISRDNAKNTVYLKMNSLKPEDTAVYYCAKRYILGYKPYSYWGQGTQVTVSS | high polyreactivity
QVQLVESGGGLDQAGGSLRLSCAASGFIFSYYTMGWYRHAPGKERELVAAIRSSGGSTYADSVKGRFTISRDNAKNTVYLQMNSLKPEDTAVYYCAAESYYPAGIRGYWGQGTQVTVSS | high polyreactivity
QVQLVESGGGLVQAGGSLRLSCAASGRTFALNALGWSRQAPGKERELVAAISWSSGRTYYADSVKGRFTISRDNAKNTVYLQMNSLKPEDTAVYYCAALVAHKGDYWGQGTQVTVSS | high polyreactivity
QVQLVESGGGLVQAGGSLRISCAASGLILIVYAMGWYRQAPGKERELVAAISSGGITYYADSVKGRFTISRDNAKNTVYLQMNSLKPEDTAVYYCAAESAYWWGDYYYWGQGTQVTVSS | high polyreactivity
QVQLVESGGGLVQAGGSLRLSCAASGFIFKIYAMGWYRQAPGKERELVAAISSGDNTNYADSVKGRFTISRDNAKNTVYLQMNSLKPEDNAVYYCAALRYTYLGQLQWSRSGRYDYWGQGTQVTVSS | high polyreactivity
QVHLVESGGGLVQAGGSLRISCAASGSIFKGYAMGWYRQAPGKERELVAAITIDGSTYYADSVKGRFTISRDNAKNTVYLQMNSLKPEDTAVYYCDAVYLWYGSWPLHFAAYDYWGQGTQVTVSS | low polyreactivity
QVQLVESGGGLVQAGGSLRLSCAASGFNTRLYAMGWYRQAPGKEREFVAAISWDGTRTYYADSVKGRFTISRDTANKTFYLQMNSLKPEDTAVSYCNARRRQWQARYDYWGQGTQITVSS | high polyreactivity
QVQLVESGAGIVQAGGSLRLSCAASGYTFQHYAMGWYRQAPGKERELVAAITRRGSGTYYADSVKGRFTISRDNAKNTVYLQMNSLKPEDTAVYYCGADWYYGDEYEYWGQGTQVNVSS | high polyreactivity

Sequence | polyreactivity (PSR sort gate)
QVQLVESGGGLVQAGGSLRLSCAASGGTFYTNVMGWYRQAPGKERELVAAITRSGGSTHYADSVKGRFTISRDNAKNTVYLQMNSLKPEDTAVYYCAVGSPYYDGMDYWGQGTQVTVSS | low polyreactivity
QVQLVESGGCLVQAGGSLRLSCAASGFIFRRYALGWNRQAPGKERELVAAISSSGGRTTYADSVKGRFTISRDNAKNTVYLQMNSLKPEDTAVYYCNADLCPGNHDGYWGQGTQVTVSS | low polyreactivity
QVQLVESGGGLVQAGGILRLSCAASGSIFDFYAMGWYRQAPGKERELVAAISGSGGSTYYADSVKGRFTISRDNAKNTVYLQMNSLKPEDTAVYYCSYYYWGQGTQVTVSS | low polyreactivity
QVQLVESGGGLVQAGGSLRLSCAASGSIFDRYAMGWYRQAPGKDRELVAAITWSGGSTRYADSVNGRFTISRDNAKNTVYLQMNILKPEDTAVYYCPASSTRWKVYYWGQGTQVTVSS | high polyreactivity
QVQLVESGGGLVQAGGSLRLSCAASGSTFHYYAMGWYRQEPGKERELVAAISGSGSSTYYADSVKGRFTISRDNAKNTVYLQMNSLKPEDTAVYYCNARGHYPRARFGYKSGSDRYWGQGTQVTVSS | high polyreactivity
QVQLVESVRGLVQAGGSLPLSCAASGIIISSYAIGWYRQAPGKESEMVADIRSGGSTNYADSVKGRFTISRDNAKNNVYLQMNSLKPEDTAVYYCIADTFQWWDIADVYVIVKYGYWGQGTQVTVSS | low polyreactivity
QVHLVDSGGGLVQAGGSLRLSCAASGSTSGTNAMGWYRQAPGKERELVAGISYRGGSTYYADSVKGRFTISRDNAKNTVYLQMNSLKPEDTAVYYCAARKLKYRREYWGQGTQVTVSS | high polyreactivity
QVQLVESGGGLVQAGGSLRLSCAASGITFRSYAMGWYRQAPGKDRELVAAISRTGGRTYYADSVKGRFTISRDNAKNTVYLQMNSLKAEDSAVYYCAAGGYSPYSLVGYDYWGQGTQVTVSS | high polyreactivity
QVQLVESGGGLVQAGGSLRLTCAASGIIFCDYVMGWYRQEPGKESELVAAISASGGRTYYADSVKGRFTISRDNAKNTVYLQMTSLKPEDTAVYYCNKRYRNRYSYSEGDYWGQGTQLTVSS | high polyreactivity
QVQLVESGGGLVQAGGSLRLSCAASGSTFQSYAMGWYRQAPGKERELVAAISARGGTTYYADSVKGRFTISRDNAKNTVYLQMNSLKPEDTAVYYCAVDRAFRAQNYHEYDYWGQGTQVTVSS | low polyreactivity
QVQLVESGGGLVQAGGSLRLSCAASGFTFNKYAMGWYRQAPGKERELVAAISSSGGSTRYADSVKGRFTISRDNAKNTVYLQMNSLKPEDTAVYYCAVYVTRDSGWWLYDYWGQGTQVTVSS | high polyreactivity
QVQLVESGGGLVQAGGSLRLSCAASGSIFFEYAMGWSRQAPGKERELVASINRGGGSTYYSDSVKGRFTISRDNAKNTVYLQMNSLKPEDTAVSYCAAQWKYRQSYLDYYSGQGTQVTVSS | low polyreactivity
QVQLVESGGGLVQAGGSLRLKCAASGSTFRPYAMGWYRQAPGKERELVARITGSGDSTYYADSVKGRFTISRDNAKITVYLQINSLKPEDNAVYYCAREFDYSLSGFDYWGQGTQVTVSS | low polyreactivity
QVQHVESGGGLVQAGGSLRLSCAASGFIFPTYAMGWYRQAPGKERELVATITTNAGGTHYADSVKGRFTISRDNAKNTVYLQMNSLKPEDTAVYYCAAKQYRPKQRKYWTRIYDYWGQGTQVTVSS | low polyreactivity
QVQLVESGGGLVQAGGSLRLSCAASGRIFWQYAMGWYRQAPGKERELVAAISRSGGSTYYADSVKGRFTISRDNAKNTVYLQMKCLTPEDTAVYYCAARKASGVPGSAGRPEYYYWGQGTQVTVSS | high polyreactivity
QVQLVESGGGLVQAGGSLRLSCAASGRIFYIYAMGWSRQAPGKERELVASITSSGTSTYADSVKGRFTISRDNAKNTVYLQMNSLKPEDTAVYYCNARGYPKSWRYSRGYEYWGQGTQVTVSS | low polyreactivity
QVQLVESGGGLVQAGGSLRLSCAASGFTFVINDMGLYRQAPGKERELVADITSGGDTYYADSVKGRFTISRDNAKNTVYLQMNSLKPEDTAVYYCAADIYPDWIYLLYGYWGQGTQVTVSS | low polyreactivity
QVQLVESGGGLVQAGGSIRLSCAASGRTFGYYAMGWYRQAPGKERELVAAITRTGGSTHYADSVKGRFTISRDNAKNTVYLQMNSLKPEDTAVYYCALDYRYTIPYDYWGQGTQVTVSS | low polyreactivity
QVQHVESGGGLVQAGGSLRLSCAASGSIFRYYTMGWYRQAPGKERELVAAISYSGGRTYYADSVKGRFTISRDNAKNTVYLQMNSLKPEDTAVYYCAAKLLQLRGRGYEYWGQGTQVTVSS | high polyreactivity
QVQLVESGGGLVQAGGSLRLSCAASGRIFYRYAMGWYRQAPGKERELVAAINDGGSTYYADSVKGRFTISRDNAKNTVYLQMNSLKAEDTAVYYCNVVNEHQSDFVVPFDYNHWGQGTQVTVSS | low polyreactivity
QVQLVESGVGLVQAGGSLRLSCAAYGSIFDGYAMGWYRPAPGKEREFVATITVSGGRSYYADSVKGSFTISRDNANNTVYLEMNSLKPEDTAVYYGNVDVFYYPHRYDYWGQGTQVTVSS | high polyreactivity
